Measured values as given in US20230293704A1, “Compositions and Methods for Tendon Regeneration” (University of Rochester, priority 2022, published 2023).
No end group written: not given here. *: point of attachment. PSMA‑b‑PS = poly(styrene-alt-maleic anhydride)-b-poly(styrene) polymer; Alloc = C=CCOC(=O)*

T1: TRAP (Homo sapiens, UniProt P13686)
T1 sequence (P13686 22-325): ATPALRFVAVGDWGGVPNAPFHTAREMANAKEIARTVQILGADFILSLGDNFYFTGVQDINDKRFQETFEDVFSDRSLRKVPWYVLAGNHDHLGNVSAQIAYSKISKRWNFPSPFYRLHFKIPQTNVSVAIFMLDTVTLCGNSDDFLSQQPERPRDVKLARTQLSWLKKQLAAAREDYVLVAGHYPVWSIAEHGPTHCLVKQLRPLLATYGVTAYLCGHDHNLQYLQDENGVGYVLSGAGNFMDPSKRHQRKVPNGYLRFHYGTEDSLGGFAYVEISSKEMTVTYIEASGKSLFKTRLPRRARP


Tests used:
[1] = system: S100a4; details: Sack et al. 2011; cited from earlier work
[2] = target: T1, TRAP; experiment: In vitro binding assay of TBP-NPs and SCP-NPs to TRAP (fluorescamine readout); details: NPs exposed to TRAP in serial dilutions, incubation 2 hours; read-out: Binding Affinity (Kd)
Source text: (§1) Polymer-peptide conjugates were self-assembled into nanoparticles via solvent exchange from dimethylformamide (DMF) to water using a syringe pump. Dynamic light scattering (DLS) was used to characterize the size and zeta potential of TBP-NPs and SCP-NPs. An in vitro binding assay that involved exposure of TBP-NPs and SCP-NPs to TRAP in serial dilutions was used to determine the binding affinity of TBP-NPs and establish their efficacy for in vivo applications. Specifically, after exposure of TBP-NPs to TRAP and incubation for 2 hours, fluorescamine, a spiro compound that reacts with primary amines to form highly fluorescent compounds, was added to the reaction. The protein-dye complex was excited with UV LED (365 nm) and emitted at 470 nm on a Cytation 5 Imaging Multimode Reader. The binding affinity (Kd) and maximum binding (Bmax) were then calculated to determine the efficacy of the synthesized TBP-NPs (FIG. 1 C-D).

[3] = Dynamic light scattering characterization of nanoparticle size; type: physicochemical; details: nanoparticles, DLS
Source text: as §1

[4] = target: T1, TRAP; details: known from the art; cited from earlier work
[5] = target: tartrate resistant acid phosphatase (TRAP); experiment: in vitro binding assay, NPs exposed to TRAP in serial dilutions, 2 h incubation, fluorescamine fluorescence readout

Row | Molecule | Diameter (nm) [3] | Dispersity for Size [3] | further results
1 | O=C(Nc1ccc([N+](=O)[O-])cc1Cl)c1cc(Cl)ccc1O [Niclosamide] |  |  | effect on S100a4 gene and protein expression [1]: inhibit the S100a4 gene and protein expression
2 | ARO-TBP-Alloc: TBP-NPs from anhydride ring-opening conjugation of Alloc-protected-lysine TBP to PSMA-b-PS polymer, then self-assembly (TPLSYLKGLVTVG-OH; not fully specified (residue 7, N-terminus); printed as TPLSYLKAllocGLVTVG; also: ['conjugated to PSMA-b-PS polymer by anhydride ring-opening']) | 32 ± 2 nm | 0.1 ± 0.1 | Kd [2]: 186 µM
3 | CDI-TBP-Alloc: TBP-NPs made by carbodiimide coupling of Alloc-protected-lysine TBP to pre-formed PSMA-b-PS nanoparticles (TPLSYLK(Alloc)GLVTVG-OH; also: coupled to PSMA-b-PS nanoparticle by amide bond (carbodiimide), site not given here) | 33 ± 3 nm | 0.2 ± 0.1 | Kd [2]: 468 µM
4 | CDI-TBP: TBP-NPs made by carbodiimide coupling of free (unprotected) TBP to PSMA-b-PS nanoparticles (TPLSYLKGLVTVG; not fully specified; also: ['coupled to PSMA-b-PS nanoparticles by carbodiimide amide bond']) | 66 ± 3 nm | 0.4 ± 0.1 | 
5 | TPLSYLKGLVTVG [TBP, TPLSYLKGLVTVG (SEQ ID NO: 1), peptide known to home to TRAP] |  |  | affinity for TRAP [4]: sub-nanomolar affinity
6 | {PSMA‑b‑PS}-TPLSYLKGLVTVG-OH (not fully specified (residue 7); printed as TPLSYLKAllocGLVTVG; also: Lys7 Alloc-protected during conjugation, removal not given here) |  |  | Kd [5]: 186 µM
7 | TPLSYLK(Alloc)GLVTVG (not fully specified; printed as TPLSYLKAllocGLVTVG; also: ['coupled to PSMA-b-PS nanoparticles by carbodiimide amide bond']) |  |  | Kd [5]: 468 µM
